6 molecules from patent US20140322218A1 (Amgen, published 2014) can be followed below.

Assay [1] addresses T1, Human Cadherin-19 (human, UniProt Q9H159 44-772).
T1 construct: Residues 1-43 are named as the native leader in the construct designations and are left out; also called human CDH19; huCDH19
Put plainly: FACS, endogenous CDH19 on CHL-1/Colo699. For orientation: A flow cytometer gives signals particle by particle.
Method: FACS binding assays were performed to evaluate the binding of the anti-Cadherin-19 receptor specific antibodies to endogenous Cadherin-19 receptor expressed on the CHL-1 tumor cell lines.
FACs assays were performed by incubating hybridoma supernatants with 10,000 to 25,000 cells in PBS/2% Fetal bovine serum/2 mM Calcium Chloride at 4° C. for one hour followed by two washes with PBS/2% Fetal bovine serum/2 mM Calcium Chloride. Cells were then treated with florochrome-labeled secondary antibodies at 4° C. followed by one wash. The cells were resuspended in 50 μl of PBS/2% FBS and antibody binding was analyzed using a FACSCalibur™ instrument.

Assay [2] has as its target T2, Cyno Cadherin-19 (cynomolgus monkey (Macaca fascicularis), UniProt Q9H159 44-772 (human entry)).
T2 construct: also called cyno CDH19; cynomologous CDH-19
T2 chain: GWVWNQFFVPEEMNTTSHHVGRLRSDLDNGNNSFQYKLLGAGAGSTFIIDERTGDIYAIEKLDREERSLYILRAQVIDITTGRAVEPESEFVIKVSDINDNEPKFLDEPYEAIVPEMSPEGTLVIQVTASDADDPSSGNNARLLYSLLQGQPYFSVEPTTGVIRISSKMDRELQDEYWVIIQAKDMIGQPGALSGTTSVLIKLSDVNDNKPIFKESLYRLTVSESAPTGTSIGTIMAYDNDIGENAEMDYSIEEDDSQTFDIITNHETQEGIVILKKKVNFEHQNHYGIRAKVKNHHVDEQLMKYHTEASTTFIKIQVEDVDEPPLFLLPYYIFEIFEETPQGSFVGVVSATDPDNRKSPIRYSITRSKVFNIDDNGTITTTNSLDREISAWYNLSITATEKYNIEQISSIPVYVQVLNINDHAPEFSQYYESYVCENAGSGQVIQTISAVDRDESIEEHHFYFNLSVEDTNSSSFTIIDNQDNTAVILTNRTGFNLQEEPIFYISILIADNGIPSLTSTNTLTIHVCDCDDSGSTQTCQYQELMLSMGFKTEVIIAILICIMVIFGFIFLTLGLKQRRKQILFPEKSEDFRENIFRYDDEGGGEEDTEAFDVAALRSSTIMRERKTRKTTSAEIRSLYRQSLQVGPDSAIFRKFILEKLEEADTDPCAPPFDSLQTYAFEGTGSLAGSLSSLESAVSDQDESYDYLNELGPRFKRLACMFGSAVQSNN
The assay can be described thus: FACS, recombinant cyno CDH19.

Assay [3] deals with T3, huCDH19(44-249)::muCDH19(248-770), Flag-tagged, on 293T cells (human/mouse chimera).
T3 construct: also called Hu EC1-2; C137896
Put plainly: FACS, transfected 293T.
From the text: (§1) The experiment included assaying the anti-CDH19 antibodies against mouse Cadherin19 to determine suitability for binning on these human/mouse chimeras.

Assay [4] deals with T4, huCDH19(44-772), Flag-tagged, on 293T cells (human, UniProt Q9H159 44-772).
T4 construct: Expressed with native leader (1-43) followed by a Flag tag; leader left out; also called Hu EC1-5
Put plainly: FACS, transfected 293T.
From the text: as §1

Assay [5] deals with T5, huCDH19(44-141)::muCDH19(140-770), Flag-tagged, on 293T cells (human/mouse chimera).
T5 construct: also called Hu EC1
Put plainly: FACS, transfected 293T.
From the text: as §1

The target of assay [6] is T6, ckCDH19(1-43)::FLAG::ckCDH19(44-141)::huCDH19(142-249)::ckCDH19(250-776), on 293T cells (human/chicken chimera).
T6 construct: Entry holds leader (1-43), Flag tag and CDH19 part; leader left out; also called Hu EC2 (chicken backbone)
T6 chain: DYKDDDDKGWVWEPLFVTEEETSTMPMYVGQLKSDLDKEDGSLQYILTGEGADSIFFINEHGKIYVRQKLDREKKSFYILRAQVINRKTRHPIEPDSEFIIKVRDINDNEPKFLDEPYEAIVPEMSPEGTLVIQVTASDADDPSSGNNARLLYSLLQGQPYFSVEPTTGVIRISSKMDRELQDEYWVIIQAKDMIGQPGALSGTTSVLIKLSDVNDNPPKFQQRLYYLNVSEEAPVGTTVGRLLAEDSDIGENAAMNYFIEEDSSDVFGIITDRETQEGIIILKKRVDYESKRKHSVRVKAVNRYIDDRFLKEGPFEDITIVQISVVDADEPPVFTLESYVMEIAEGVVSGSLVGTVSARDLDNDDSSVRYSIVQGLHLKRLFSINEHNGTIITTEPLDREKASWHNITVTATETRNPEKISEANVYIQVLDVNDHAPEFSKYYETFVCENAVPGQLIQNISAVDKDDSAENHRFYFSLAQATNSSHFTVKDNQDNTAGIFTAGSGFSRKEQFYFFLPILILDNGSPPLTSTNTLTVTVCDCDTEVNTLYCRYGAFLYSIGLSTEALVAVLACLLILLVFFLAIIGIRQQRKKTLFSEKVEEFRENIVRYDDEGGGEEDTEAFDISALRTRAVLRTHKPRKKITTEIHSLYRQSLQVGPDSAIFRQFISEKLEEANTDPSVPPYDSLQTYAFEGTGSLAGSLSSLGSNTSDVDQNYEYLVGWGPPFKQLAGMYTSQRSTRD
Put plainly: FACS, transfected 293T.
Method: (§2) The following binding assay was completed in presence of 2 mM CaCl2. […] Cells were then washed one time and the amount of cell associated Alexa647-labelled Ab was quantitated by flow cytometry. The experiments included mock transfected controls.

Assay [7] has as its target T7, (1-43)::FLAG::ckCDH19(44-468)::huCDH19(464-772), on 293T cells (human/chicken chimera).
T7 construct: Entry holds leader (1-43), Flag tag and CDH19 part; leader left out; also called Hu EC5 (chicken backbone)
T7 chain: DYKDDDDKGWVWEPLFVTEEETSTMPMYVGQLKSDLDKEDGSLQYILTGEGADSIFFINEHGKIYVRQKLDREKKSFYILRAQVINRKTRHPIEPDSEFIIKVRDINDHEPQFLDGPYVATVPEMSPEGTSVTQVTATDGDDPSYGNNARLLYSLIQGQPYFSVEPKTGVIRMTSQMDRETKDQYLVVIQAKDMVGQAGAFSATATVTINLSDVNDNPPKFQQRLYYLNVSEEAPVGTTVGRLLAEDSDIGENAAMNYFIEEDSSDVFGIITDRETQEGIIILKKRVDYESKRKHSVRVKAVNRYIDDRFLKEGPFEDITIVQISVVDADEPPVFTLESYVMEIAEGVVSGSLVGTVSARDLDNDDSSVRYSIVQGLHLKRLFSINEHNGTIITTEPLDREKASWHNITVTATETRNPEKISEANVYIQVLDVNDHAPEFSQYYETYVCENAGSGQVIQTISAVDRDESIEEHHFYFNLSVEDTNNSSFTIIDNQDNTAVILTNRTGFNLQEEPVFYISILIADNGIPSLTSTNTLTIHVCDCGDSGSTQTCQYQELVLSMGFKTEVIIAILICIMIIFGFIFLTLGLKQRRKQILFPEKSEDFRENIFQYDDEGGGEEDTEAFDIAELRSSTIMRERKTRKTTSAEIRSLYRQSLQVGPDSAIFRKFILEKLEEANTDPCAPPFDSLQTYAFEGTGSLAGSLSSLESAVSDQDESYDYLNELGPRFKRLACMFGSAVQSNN
Put plainly: FACS, transfected 293T.
Method: as §2

Assay [8] deals with T8, huCDH19(1-43)::FLAG::hu(44-141)::ckCDH19(142-776), on 293T cells (human/chicken chimera).
T8 construct: Entry holds leader (1-43), Flag tag and CDH19 part; leader left out; also called Hu EC1 (chicken backbone)
The assay can be described thus: FACS, transfected 293T.
Method: as §2

Assay [9] has as its target T9, ckCDH19(1-43)::FLAG::ckCDH19(44-776), on 293T cells (chicken).
T9 construct: Entry holds leader (1-43), Flag tag and CDH19 part; leader left out; also called Ck EC1-5
T9 chain: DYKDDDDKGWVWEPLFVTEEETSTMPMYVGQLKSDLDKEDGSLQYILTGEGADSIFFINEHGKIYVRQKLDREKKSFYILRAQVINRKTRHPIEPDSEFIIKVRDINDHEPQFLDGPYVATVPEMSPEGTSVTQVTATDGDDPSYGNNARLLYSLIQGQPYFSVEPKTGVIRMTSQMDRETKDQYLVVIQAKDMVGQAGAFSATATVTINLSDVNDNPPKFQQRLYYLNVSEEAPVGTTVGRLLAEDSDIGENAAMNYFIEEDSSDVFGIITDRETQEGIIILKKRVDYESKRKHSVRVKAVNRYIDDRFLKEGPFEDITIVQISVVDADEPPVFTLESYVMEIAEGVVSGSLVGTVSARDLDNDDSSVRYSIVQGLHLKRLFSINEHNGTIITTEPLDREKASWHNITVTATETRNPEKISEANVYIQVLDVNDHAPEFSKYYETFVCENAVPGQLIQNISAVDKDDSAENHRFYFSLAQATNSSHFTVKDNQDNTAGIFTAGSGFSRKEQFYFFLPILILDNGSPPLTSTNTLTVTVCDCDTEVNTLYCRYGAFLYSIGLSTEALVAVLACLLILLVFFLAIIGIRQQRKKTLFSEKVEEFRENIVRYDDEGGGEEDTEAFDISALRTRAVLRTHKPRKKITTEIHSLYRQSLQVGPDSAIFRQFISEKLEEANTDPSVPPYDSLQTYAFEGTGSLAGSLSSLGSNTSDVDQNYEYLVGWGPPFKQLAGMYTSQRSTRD
Put plainly: FACS, transfected 293T.
Method: as §2

B1: hu anti-<huCDH19> 4F7 VH::huIgG1z / 4F7 VL::huLLC-C1 (Ab ID 13591) (antibody, V domains shown)
VH: QVQLQESGPGLVKPSETLSLTCTVSGGSISSYSWSWIRQPPGKGLEWIGYIYYSGSTNYNPSLKSRVTISLDTSKNQFSLKLSSVTAADTAVYYCARNWAFHFDYWGQGTLVTVSS
VL: QSVLTQPPSVSGAPGQRVTISCTGSSSNIGTGYDVHWYQQLPGTAPKLLIHGNSNRPSGVPDRFSGSKSGTSASLAITGLQAEDEADYYCQSYDSSLSGWVFGGGTRLTVLG
As to B1, the binding result in assay [1] and in [2] was “binds” in each case.

B2: hu anti-<huCDH19> 20D3.1 VH::huIgG1z / 20D3.1 VL::huLLC-C2 (Ab ID 13878) (antibody, V domains shown)
VH: QVQLVQSGAEVKKPGASVKVSCKVSGYTFTSYFIHWVRQAPGQGLEWMGIINPISVSTSYAQKFQGRVTMTRDTSTSTVFMELSSLRSEDTAVYYCARGGIQLWLHFDYWGQGTLVTVSS
VL: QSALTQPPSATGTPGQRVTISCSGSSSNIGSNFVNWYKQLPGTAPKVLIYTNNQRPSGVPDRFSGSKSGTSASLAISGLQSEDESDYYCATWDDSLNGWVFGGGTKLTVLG
notes: also called 16H2; 23E7
Regarding B2, the binding result in assay [1] and in assay [2] was “binds” each time.

B3: hu anti-<huCDH19> 19B5.1 VH::huIgG1z / 19B5.1 VL::huLLC-C2 (Ab ID 13885) (antibody, V domains shown)
VH: QVQLVQSGAEVKKPGASVKVSCKVSGYTFTSYFIHWVRQAPGQGLEWMGIINPISVSTSYAQKFQGRVTMTRDTSTSTVFMELSSLRSEDTAVYYCARGGIQLWLHLDYWGQGTLVTVSS
VL: QSALTQPPSTTGTPGQRVTISCSGSRSNIGSNFVNWYKQLPGTAPKVLIYTNNQRPSGVPDRFSGSKSGTSASLAISGLQSEDESDYYCATWDDSMNGWVFGGGTKLTVLG
With B3, the binding result in [1] and in assay [2] was “binds” each time.

B4: hu anti-<huCDH19> 25F8.1 VH::huIgG1z / 25F8.1 VL::huLLC-C2 (Ab ID 13880) (antibody, V domains shown)
VH: QVQLVQSGAEVKKPGASVKVSCKASGYTFTSYYIHWVRQAPGQGLEWMGIINPSGGSTRYAQKFQGRVTMTRDTSTSTVFMELSSLRSEDTAVYYCARGGIQLWLHFDYWGQGTLVTVSS
VL: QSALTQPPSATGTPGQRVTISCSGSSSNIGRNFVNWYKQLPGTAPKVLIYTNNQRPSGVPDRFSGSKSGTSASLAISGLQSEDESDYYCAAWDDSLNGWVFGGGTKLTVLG
Take B4: the binding result in assay [3], in assay [4], in [5], in assay [1] and in assay [2] was “binds” throughout.

B5: hu anti-<huCDH19> 22D1.1 VH::huIgG1z / 22D1.1 VL::huLLC-C2 (Ab ID 13879) (antibody, V domains shown)
VH: QVQLVQSGAEVKKPGASVRVSCKVSGYTFTSYFIHWVRQAPGQGLEWMGIINPISVSTSYAQKFQGRVTMTRDTSTSTVFMELSSLRSEDTAVYYCARGGIQLWLHLDYWGQGTLVTVSS
VL: QSALTQPPSATGTPGQRVTISCSGSSSNIGSNFVNWYKQLPGTAPKVLIYTNNQRPSGVPDRFSGSKSGTSASLAISGLQSEDESDYYCATWDDSMNGWVFGGGTKLTVLG
Consider B5, for which the binding result in [1] and in assay [2] was “binds” throughout.

B6: hu anti-<huCDH19> 17H8.2 VH::huIgG1z / 17H8.2 VL::huKLC (Ab ID 13874) (antibody, V domains shown)
VH: QVQLQESGPGLVKPSETLSLTCTVSGGSINSYYWSWIRQPPGKGLEWIGYIYYIGSTNYNPSLKSRVTISVDTSKNQFSLKLSSVTAADTALYYCARDSRYRSGWYDAFDIWGQGTMVTVSS
VL: DIVLTQSPGTLSLSPGERATLSCRASQSVAGSYLAWYQQKPGQAPRLLISGASSRATGIPDRFSGSGSGTDFTLTISRLEPEDFAVYYCQQYGKSPITFGQGTRLEMKG
notes: also called 23B6; 28D10
For the molecule B6, the binding result in assay [6] was “no binding (tested: 5 ug/ml)”; in [7], “no binding (tested: 5 ug/ml)”; in assay [8] it was “binds”; in [9] it was “no binding (tested: 5 ug/ml)”.
